In the assay the target is HLA-A*02:01 (Homo sapiens, UniProt P04439, D140Y/D185E/D98H/E176V/E277Q/G131W/G231S/I119V/I121R/I166T/I218V/L300P/L318F/N151K/N90K/P208A/P217A/Q86G/Q94H/R138H/R169H/T345S). Briefly: MHC binding assay (UV-ligand exchange, β2m ELISA, peptide exchange yield). The note with it: binding of HLA-class I restricted peptides to HLA-A*02:01, UV-ligand exchange. The essentials:
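Peptide-MHC complexes formed by UV-ligand exchange, cleaving a UV-sensitive placeholder peptide in favour of the test peptide. Exchange yield measured by ELISA: monomers diluted 100-fold onto streptavidin-coated plates, 1 h 37 °C, detected with 2 ug/ml HRP anti-β2m and TMB, absorbance at 450 nm.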
A general note: ELISA stands for enzyme-linked immunosorbent assay.
Consider “15 (VLLTFKIFL; listed as Homo sapiens) [compound 15]”, for which the “Peptide exchange (MHC class I binding score, peptide exchange yield)” value (shortened to “Peptide exchange”) was ““++” (≥20% = ++)”.
Take “506 (KLLGKVETA; listed as Homo sapiens) [compound 506]”: the “Peptide exchange” value is listed as ““+++” (≥50 = +++)”.
In the case of “250 (ALSEEGLLVYL; listed as Homo sapiens) [compound 250]” it was ““+++” (≥50 = +++)”; in that of “578 (FLDPGGPMMKL; listed as Homo sapiens) [compound 578]”, ““+++” (≥50 = +++)”.
In the case of “24 (SLSDGLEEV; listed as Homo sapiens) [compound 24]” it was ““++” (≥20% = ++)”; in that of “152 (ILFEDIFDV; listed as Homo sapiens) [compound 152]”, ““+++” (≥50 = +++)”; in that of “480 (ALLEDSCHYL; listed as Homo sapiens) [compound 480]”, ““+++” (≥50 = +++)”.
With “149 (NLLELFVQL; listed as Homo sapiens) [compound 149]” the entry was ““+++” (≥50 = +++)”.
Regarding “408 (VLDDSIYLV; listed as Homo sapiens) [compound 408]”, the “Peptide exchange” value is ““++” (≥20% = ++)”.
In the case of “507 (KLIDDQDISISL; listed as Homo sapiens) [compound 507]” it was ““+++” (≥50 = +++)”.
As for “590 (SLIEKLWQT; listed as Homo sapiens) [compound 590]”, the “Peptide exchange” value is ““++” (≥20% = ++)”.
“395 (ALALGGIAVV; listed as Homo sapiens) [compound 395]”: the “Peptide exchange” value was ““++++” (≥75% = ++++)”.
In the case of “573 (ILVANAIVGV; listed as Homo sapiens) [compound 573]” it was ““+++” (≥50 = +++)”; in that of “34 (ILVEADSLWVV; listed as Homo sapiens) [compound 34]”, ““+++” (≥50 = +++)”; in that of “101 (ILVGGGALATV; listed as Homo sapiens) [compound 101]”, ““+++” (≥50 = +++)”.
In the case of “282 (LLADVVPTT; listed as Homo sapiens) [compound 282]” it was ““+++” (≥50 = +++)”; in that of “440 (ALADGVTMQV; listed as Homo sapiens) [compound 440]”, ““++” (≥20% = ++)”.
“56 (KLYEGIPVLL; listed as Homo sapiens) [compound 56]”: the “Peptide exchange” value is ““++++” (≥75% = ++++)”.
In the case of “99 (ALVSKGLATV; listed as Homo sapiens) [compound 99]” it was ““++” (≥20% = ++)”; in that of “76 (ILIDSIYKV; listed as Homo sapiens) [compound 76]”, ““+++” (≥50 = +++)”; in that of “87 (ALPEAPAPLLPHIT; listed as Homo sapiens) [compound 87]”, ““++” (≥20% = ++)”.
In the case of “354 (LILEGVDTV; listed as Homo sapiens) [compound 354]” it was ““++” (≥20% = ++)”.
For the substance “202 (ALLDQQGSRWTL; listed as Homo sapiens) [compound 202]”, the “Peptide exchange” value is given as ““+++” (≥50 = +++)”.
In the case of “118 (KLIDNNINV; listed as Homo sapiens) [compound 118]” it was ““+++” (≥50 = +++)”.
With “612 (YLYNEGLSV; listed as Homo sapiens) [compound 612]” the entry was ““+++” (≥50 = +++)”; with “443 (GLWEIENNPTV; listed as Homo sapiens) [compound 443]”, ““+++” (≥50 = +++)”.
With “66 (FLDENIGGVAV; listed as Homo sapiens) [compound 66]” the entry was ““+++” (≥50 = +++)”; with “281 (ILRESTEEL; listed as Homo sapiens) [compound 281]”, ““+++” (≥50 = +++)”.
For “21 (VLDELDMEL; listed as Homo sapiens) [compound 21]”, the “Peptide exchange” value is ““++” (≥20% = ++)”.
In the case of “111 (YVWGFYPAEV; listed as Homo sapiens) [compound 111]” it was ““+++” (≥50 = +++)”.
In the case of “579 (NLMEMVAQL; listed as Homo sapiens) [compound 579]” it was ““++” (≥20% = ++)”.
With “220 (LLQKFVPEI; listed as Homo sapiens) [compound 220]”, the “Peptide exchange” value is reported as ““++” (≥20% = ++)”.
In the case of “102 (YLFESEGLVL; listed as Homo sapiens) [compound 102]” it was ““+++” (≥50 = +++)”; in that of “344 (YLQDQHLLLTV; listed as Homo sapiens) [compound 344]”, ““+++” (≥50 = +++)”; in that of “115 (AIAGAGILYGV; listed as Homo sapiens) [compound 115]”, ““++” (≥20% = ++)”.
In the case of “538 (LLLAHIIAL; listed as Homo sapiens) [compound 538]” it was ““++” (≥20% = ++)”; in that of “13 (YLMDESLNL; listed as Homo sapiens) [compound 13]”, ““+++” (≥50 = +++)”.
In the case of “319 (SLEPQIQPV; listed as Homo sapiens) [compound 319]”, the “Peptide exchange” value is on record as ““++” (≥20% = ++)”.
As to “29 (KMLGIPISNILMV; listed as Homo sapiens) [compound 29]”, the “Peptide exchange” value is listed as ““+++” (≥50 = +++)”.
With “522 (TLWYRSPEV; listed as Homo sapiens) [compound 522]” the entry was ““++” (≥20% = ++)”; with “33 (VLLSLLEKV; listed as Homo sapiens) [compound 33]”, ““++” (≥20% = ++)”.
“177 (YLLPEEYTSTL; listed as Homo sapiens) [compound 177]”: the “Peptide exchange” value is on record as ““++++” (≥75% = ++++)”.
In the case of “94 (YLIDIKTIAI; listed as Homo sapiens) [compound 94]”, the “Peptide exchange” value was ““++” (≥20% = ++)”.
With “576 (ILLNNSGQIKL; listed as Homo sapiens) [compound 576]” the entry was ““++++” (≥75% = ++++)”; with “208 (KISPVTFSV; listed as Homo sapiens) [compound 208]”, ““+++” (≥50 = +++)”; with “209 (KLIESKHEV; listed as Homo sapiens) [compound 209]”, ““++” (≥20% = ++)”.

The record behind these values is patent US11230581B2, “Peptides and combination of peptides for use in immunotherapy against ovarian cancer and other cancers” (Immatics Biotechnologies GmbH, priority 2015, dated 2022).
